Publication PMC5270677

Target: Quiescin-sulfhydryl oxidase (QSOX), recombinant human (human) (UniProt O00391)
Assay: SPR; Biacore 3000; […]; 30 ul/min in PBS, 0.05% Tween 20, 3 mM EDTA at 25°C; 1:1 Langmuir model; […]

Chain of unfolded N-terminal region of human PrP, HuPrP(23-145) (P04156 23-145): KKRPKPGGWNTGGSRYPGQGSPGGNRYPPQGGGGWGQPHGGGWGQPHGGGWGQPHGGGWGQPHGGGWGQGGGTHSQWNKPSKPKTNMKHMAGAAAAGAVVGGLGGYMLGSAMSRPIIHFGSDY
Chain of Quiescin-sulfhydryl oxidase (QSOX), recombinant human (human) (O00391 30-709): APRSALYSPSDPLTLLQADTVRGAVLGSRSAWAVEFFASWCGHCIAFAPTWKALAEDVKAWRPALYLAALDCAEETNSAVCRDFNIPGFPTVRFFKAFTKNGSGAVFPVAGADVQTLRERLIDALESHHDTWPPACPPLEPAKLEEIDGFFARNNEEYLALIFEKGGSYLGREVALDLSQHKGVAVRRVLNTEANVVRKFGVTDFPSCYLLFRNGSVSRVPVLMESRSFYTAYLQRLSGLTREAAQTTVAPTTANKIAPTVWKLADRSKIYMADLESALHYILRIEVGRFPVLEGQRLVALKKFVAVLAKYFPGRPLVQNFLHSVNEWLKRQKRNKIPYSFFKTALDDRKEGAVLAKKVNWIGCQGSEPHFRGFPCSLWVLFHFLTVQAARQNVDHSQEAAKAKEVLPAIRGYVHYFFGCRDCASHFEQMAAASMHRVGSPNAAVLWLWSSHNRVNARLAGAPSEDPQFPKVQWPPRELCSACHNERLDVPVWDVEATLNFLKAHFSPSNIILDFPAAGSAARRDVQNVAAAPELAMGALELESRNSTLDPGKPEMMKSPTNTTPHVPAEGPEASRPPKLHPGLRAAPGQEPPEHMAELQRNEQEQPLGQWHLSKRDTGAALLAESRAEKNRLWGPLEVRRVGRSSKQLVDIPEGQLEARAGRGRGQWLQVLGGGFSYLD

unfolded N-terminal region of human PrP, HuPrP(23-145) (from UniProt P04156 23-145) (domain or fragment)
Kd: 3.6 nM | koff: 4.78e-05 s⁻¹ | kon: 13200 M⁻¹ s⁻¹
